Source: publication PMC2937989 (The Journal of Biological Chemistry, 2010)

B1: chicken vinculin domain 1 (Vd1; residues 1–258) (domain or fragment, UniProt P12003 1-258, looked up)
chain: MPVFHTRTIESILEPVAQQISHLVIMHEEGEVDGKAIPDLTAPVSAVQAAVSNLVRVGKETVQTTEDQILKRDMPPAFIKVENACTKLVRAAQMLQADPYSVPARDYLIDGSRGILSGTSDLLLTFDEAEVRKIIRVCKGILEYLTVAEVVETMEDLVTYTKNLGPGMTKMAKMIDERQQELTHQEHRVMLVNSMNTVKELLPVLISAMKIFVTTKNTKSQGIEEALKNRNFTVEKMSAEINEIIRVLQLTSWDEDAW

Experiments:
[1] = target: B1; test: SEC
[2] = target: talin(1359–1659), talin 9-helix module (mouse, UniProt P26039 1359-1659); test: SEC
Chain of talin(1359–1659), talin 9-helix module (P26039 1359-1659): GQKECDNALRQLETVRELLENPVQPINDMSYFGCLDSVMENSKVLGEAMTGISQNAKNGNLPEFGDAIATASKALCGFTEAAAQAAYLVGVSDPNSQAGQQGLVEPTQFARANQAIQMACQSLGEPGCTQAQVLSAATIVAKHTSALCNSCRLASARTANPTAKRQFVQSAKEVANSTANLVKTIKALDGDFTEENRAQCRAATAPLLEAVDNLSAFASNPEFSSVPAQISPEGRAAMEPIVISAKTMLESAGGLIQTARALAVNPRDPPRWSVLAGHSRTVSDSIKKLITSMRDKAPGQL

binding result [1] | binding result [2] | Binder
binds | – | talin 4-helix bundle (residues 1458–1584) (domain or fragment, mouse, UniProt P26039 1458-1584, looked up) QQGLVEPTQFARANQAIQMACQSLGEPGCTQAQVLSAATIVAKHTSALCNSCRLASARTANPTAKRQFVQSAKEVANSTANLVKTIKALDGDFTEENRAQCRAATAPLLEAVDNLSAFASNPEFSSV
– | binds | B1
